# Reference: patent US20240301052A1 (LANOVA MEDICINES DEVELOPMENT, published 2024)
# Changes are numbered by the printed parent chain.
# T1: human SLC34A2 (human, UniProt O95436 1-690)
# T1 construct: whole, on cells; also called human solute carrier 34 A2; NaPi2b
# T1 sequence (looked up): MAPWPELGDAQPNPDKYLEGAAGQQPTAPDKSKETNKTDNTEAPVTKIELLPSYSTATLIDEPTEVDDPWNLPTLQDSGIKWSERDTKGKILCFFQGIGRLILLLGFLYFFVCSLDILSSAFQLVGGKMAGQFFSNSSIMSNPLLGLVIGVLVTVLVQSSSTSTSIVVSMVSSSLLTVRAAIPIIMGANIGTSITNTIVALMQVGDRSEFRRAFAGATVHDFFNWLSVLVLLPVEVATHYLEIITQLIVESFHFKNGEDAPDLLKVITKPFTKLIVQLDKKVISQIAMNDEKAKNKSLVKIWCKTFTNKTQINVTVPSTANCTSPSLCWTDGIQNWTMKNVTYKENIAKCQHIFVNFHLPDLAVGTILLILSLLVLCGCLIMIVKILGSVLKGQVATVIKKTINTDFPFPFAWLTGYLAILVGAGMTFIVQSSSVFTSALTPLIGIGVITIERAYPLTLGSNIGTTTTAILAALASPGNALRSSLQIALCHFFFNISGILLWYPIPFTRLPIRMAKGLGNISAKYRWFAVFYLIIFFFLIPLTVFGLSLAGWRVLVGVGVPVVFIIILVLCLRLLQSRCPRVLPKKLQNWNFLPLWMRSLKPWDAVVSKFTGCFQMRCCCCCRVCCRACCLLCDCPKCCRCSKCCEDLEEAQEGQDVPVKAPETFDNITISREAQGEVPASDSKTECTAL
# B1: xi11F6H8 hIgG1 (antibody, V domains shown)
# VH: EVQLQQSGPELVKPGASVKISCKTSGFTFTEYTMHWVKQSHGKSLEWIGGINPNNGISSYNQNFKGKATLTVDKSSSTAYMELRSLTSEDSTVYYCARCRYYDTSYYDMDYWGQGTSVTVSS
# VL: DIQMTQTTSSLSASLGDRVTISCRASQDIRNFLNWYQQKPDGTVKLLIYYTSRLHSGVPSRFSGSGSGTDYSLTISNLEEEDIATYFCQQSNTLPWTFGGGTKLEIK
# notes: chimeric, hIgG1
# B2: xi7G10E11 hIgG1 (antibody, V domains shown)
# VH: DVKLVESGGGLIKLGGSLKLSCAASGFTFSGYYMSWFRQTPEKRLELVAVINSNGGSTYYAVTVKGRFTISRDNAKNTLYLQMSSLKSEDTALYYCARHEGSQAWFAHWGQGTLVTVSA
# VL: DIVMTQSHKFMSTSVGDRVSITCKASQDVTTAVAWYQQKPGQSPKLLIYWASTRHTGVPDRFTGSGSGTDYTLTISSVQAEDLALYYCQQHHSTPLTFGAGTKLELK
# notes: chimeric, hIgG1
# B3: xi25B11B9 hIgG1 (antibody, V domains shown)
# VH: DVKLVESGGGLVRLGGSLKLSCAASGFTFSSHYMSWVRQTPKKRLELVATINSSGGNTYYPDTVKGRFTISRDNARNTLFLQMTSLKSEDTALYYCARQPINTVAYFDYWGQGTTLTVSS
# VL: B2 VL with K9E, D17A, V29L, T56I, T69A, H91Y
# notes: chimeric, hIgG1
# B4: xi20H2F1 hIgG1 (antibody, V domains shown)
# VH: EVKLVESGGNLVKPGGSLKLSCAASGFTFSSYAMSWVRQTPEKRLEWVASISNGGTTYYPDSVKGRFTISRDVARNILYLQMTSLRSEDTAMYYCARTHYRDFVYWGQGTLVTVSA
# VL: EIVLTQAAFSNPVTLGTSASISCRSSKSLLHSNGITYLYWYLQKPGQSPQLLIYQMSNLASGVPDRFSCSGSGTDFTLRISRVEAEDVGVYYCAQNLEFPWTFGGGTKLEIK
# notes: chimeric, hIgG1
# B5: xi95H11A1D8VH-1 hIgG1 (antibody, V domains shown)
# VH: QVQLQQPGAELVKPGASVKMSCKTSGYTFTTNNMHWVKQTPGQGLEWIGAIYPGNGATAYNQKFKGKATLTADKSSSTAYMQLSSLTSEASAVYYCARGMYGHGAMDYWGQGTSVIVSS
# VL: DIVLTQSPATLSVTPGDSVSLSCRARQNIGNNLYWYQQKSNESPRLLIKYASQSISGIPSRFSGSGSGTDFTLTINSVETEDFGVYFCQQSFSWPLTFGAGTKLELK
# notes: chimeric, hIgG1; the suffix VH-1 is not explained
# B6: 30H9B8F9.p1.z16 hIgG1 (antibody, V domains shown)
# VH: QVQLVQSGAEVVKPGASVKMSCKTSGYTFTTNNMHWVKQAPGQGLEWIGAIYPGSGATAYNQKFKGRATLTADKSTSTAYMELSSLRSEATAVYYCARGMYGHGAMDYWGQGTSVTVSS
# VL: DIVMTQSPSFLSASVGDRVTITCKASQDVGTAVAWYQQKPGKSPKLLIYWATTRHSGVPDRFTGSGSGTDFIFTISSVQPEDFATYFCQQYSSNPLTFGAGTKLEIK
# notes: humanized hIgG1
# B7: 30H9B8F9.p1.z1 hIgG1 (antibody, V domains shown)
# VH: QVQLVQSGAEVKKPGASVKVSCKASGYTFTTNNMHWVRQAPGQGLEWMGAIYPGSGATAYNQKFKGRVTMTRDTSTSTVYMELSSLRSEDTAVYYCASGMYGHGAMDYWGQGTLVTVSS
# VL: DIQLTQSPSFLSASVGDRVTITCKASQDVGTAVAWYQQKPGKAPKLLIYWATTRHSGVPSRFSGSGSGTEFTLTISSLQPEDFATYYCQQYSSNPLTFGQGTKLEIK
# notes: humanized hIgG1
# B8: 30H9B8F9.p1.z15 hIgG1 (antibody, V domains shown)
# VH: B6 VH
# VL: B6 VL with V3Q, T63S, D70E
# notes: humanized hIgG1
# B9: 30H9B8F9.p1.z11 hIgG1 (antibody, V domains shown)
# VH: B6 VH with M20V, K38R, A68V, S114L
# VL: B6 VL with V3Q, T63S, D70E
# notes: humanized hIgG1
# B10: 30H9B8F9.p1.z4 hIgG1 (antibody, V domains shown)
# VH: B7 VH
# VL: B6 VL
# notes: humanized hIgG1
# B11: 30H9B8F9.p1.z8 hIgG1 (antibody, V domains shown)
# VH: B7 VH with A24T, M48I, R72A, S98R
# VL: B6 VL
# notes: humanized hIgG1
# B12: 30H9B8F9.p1.z12 hIgG1 (antibody, V domains shown)
# VH: B6 VH with M20V, K38R, A68V, S114L
# VL: B6 VL
# notes: humanized hIgG1
# B13: 30H9B8F9.p1.z3 hIgG1 (antibody, V domains shown)
# VH: B7 VH
# VL: B6 VL with V3Q, T63S, D70E
# notes: humanized hIgG1
# B14: 30H9B8F9.p1.z7 hIgG1 (antibody, V domains shown)
# VH: B7 VH with A24T, M48I, R72A, S98R
# VL: B6 VL with V3Q, T63S, D70E
# notes: humanized hIgG1
# B15: 30H9B8F9.p1.z14 hIgG1 (antibody, V domains shown)
# VH: B6 VH
# VL: B7 VL with A43S, S60D, L73F, Y87F
# notes: humanized hIgG1
# B16: 30H9B8F9.p1.z10 hIgG1 (antibody, V domains shown)
# VH: B6 VH with M20V, K38R, A68V, S114L
# VL: B7 VL with A43S, S60D, L73F, Y87F
# notes: humanized hIgG1
# B17: 30H9B8F9.p1.z2 hIgG1 (antibody, V domains shown)
# VH: B7 VH
# VL: B7 VL with A43S, S60D, L73F, Y87F
# notes: humanized hIgG1
# B18: 62G10E4G8.p3.z7 hIgG1 (antibody, V domains shown)
# VH: QVQLVQSGAEVKKPGASVKVSCKASGYTFPSYITHWVRQAPGQGLEWIGAIYPGNADTSYIQKFKGRVTMTADKSTSTVYMELSSLRSEDTAVYYCARGTYGTSAWFTYWGQGTLVTVSS
# VL: EIVLTQSPATLSVSPGERATLSCRARQNIGNNLYWYQQKPGQSPRLLIKYASQSISGIPSRFSGSGSGTDFTLTISSLQSEDFAVYFCQQSFSWPLTFGQGTKLEIK
# notes: humanized hIgG1
# B19: 62G10E4G8.p3.z2 hIgG1 (antibody, V domains shown)
# VH: B18 VH with I48M, A72R, K74T
# VL: B18 VL with L4M, S60A, D70E
# notes: humanized hIgG1
# B20: 62G10E4G8.p3.z3 hIgG1 (antibody, V domains shown)
# VH: B18 VH with I48M, A72R, K74T
# VL: B18 VL
# notes: humanized hIgG1
# B21: 62G10E4G8.p3.z5 hIgG1 (antibody, V domains shown)
# VH: B18 VH
# VL: B18 VL with L4M, S43A, K49Y, S60A, D70E, F87Y
# notes: humanized hIgG1
# B22: 62G10E4G8.p3.z10 hIgG1 (antibody, V domains shown)
# VH: B18 VH with R38K, M70L, V79A
# VL: B18 VL with L4M, S60A, D70E
# notes: humanized hIgG1
# B23: 62G10E4G8.p3.z4 hIgG1 (antibody, V domains shown)
# VH: B18 VH with I48M, A72R, K74T
# VL: B18 VL with V13A, L78V, Q100A
# notes: humanized hIgG1
# B24: 62G10E4G8.p3.z9 hIgG1 (antibody, V domains shown)
# VH: B18 VH with R38K, M70L, V79A
# VL: B18 VL with L4M, S43A, K49Y, S60A, D70E, F87Y
# notes: humanized hIgG1
# B25: 62G10E4G8.p3.z12 hIgG1 (antibody, V domains shown)
# VH: B18 VH with R38K, M70L, V79A
# VL: B18 VL with V13A, L78V, Q100A
# notes: humanized hIgG1
# B26: 62G10E4G8.p3.z14 hIgG1 (antibody, V domains shown)
# VH: B18 VH with K12V, V20M, R38K, V68A, M70L, V79A
# VL: B18 VL with L4M, S60A, D70E
# notes: humanized hIgG1
# B27: 62G10E4G8.p3.z6 hIgG1 (antibody, V domains shown)
# VH: B18 VH
# VL: B18 VL with L4M, S60A, D70E
# notes: humanized hIgG1
# B28: 62G10E4G8.p3.z1 hIgG1 (antibody, V domains shown)
# VH: B18 VH with I48M, A72R, K74T
# VL: B18 VL with L4M, S43A, K49Y, S60A, D70E, F87Y
# notes: humanized hIgG1
# B29: 62G10E4G8.p3.z16 hIgG1 (antibody, V domains shown)
# VH: B18 VH with K12V, V20M, R38K, V68A, M70L, V79A
# VL: B18 VL with V13A, L78V, Q100A
# notes: humanized hIgG1
# Molecular target: T1, human SLC34A2
# Assay: FACS, OVCAR3 cells
# Description: In this example, cell based binding of chimeric antibodies (hIgG1) prepared from the murine antibodies on human SLC34A2 expressing cells were assessed using flow cytometry.
# (§1) Briefly, OVCAR3 cells or HEK293 cells expressing human SLC34A2 were incubated with chimeric antibodies (from 200 nM, 4 folds dilution, 8 points). After incubation at 4° C. for 60 minutes, the cells were washed with FACS buffer twice, then stained with fluorescent conjugated secondary antibody at 4° C. for 30 minutes. After that the cells were washed twice and analyzed by flow cytometry.
EC50 [nM],Top (MFI),Binder
4.9,41300,B1
1.68,39600,B2
9.06,42500,B3
2.73,26500,B4

# Molecular target: T1, human SLC34A2
# Assay: FACS, HEK293/human SLC34A2 cells
# Description: as §1
EC50 [nM],Top (MFI),Binder
63.4,12700,B5
1.92,111000,B1
1.72,109000,B2
2.51,106000,B3
1.31,42000,B4

# Molecular target: T1, human SLC34A2
# Assay: FACS, OVCAR3 cells
# Remark: another data set of the same source
# Description: The binding of these humanized antibodies to OVCAR3 cells was evaluated as described above, and the results are shown in FIG. 12A-D and Tables 16A-D.
EC50 [nM],Top (MFI),Binder
1.41,26500,B6
2.75,27100,B7
1.05,26500,B8
1.43,27000,B9
2.76,20400,B10
1.9,26200,B11
1.4,27600,B12
2.38,19600,B13
1.69,26700,B14
1.31,27300,B15
1.93,30700,B16
3.09,25200,B17
6.08,26800,B18
32.9,29700,B19
17.3,31300,B20
~1360,~230000,B21
4.87,27400,B22
16.3,29900,B23
24.1,31300,B24
2.96,25400,B25
4.58,27900,B26
8.06,28200,B27
944,87700,B28
10.9,31900,B29
